Two molecules from patent publication US20250084176A1 (F STAR BETA, published 2025) can be followed below.

Assay [1] addresses T1, human CD137, full length, on cells (human, UniProt Q07011 24-255).
T1 construct: also called DO11.10.hCD137; HEK.FRT.luc.hCD137
Briefly: flow cytometry on CD137int DO11.10 cells (ABC 404,597), anti-human IgG-PE detection, geometric mean PE. As for the experimental part:
(§1) A range of DO11.10 cells expressing different levels of CD137 were produced as described in Example 3.5. To determine the relative expression of CD137 in each cell line, the antibody binding capacity (ABC) was determined according to manufacturer's protocol (Quantum™ Simply Cellular® #816 Bangs Labs).
(§2) All antibodies tested were diluted in FACS buffer in 120 μl. DO11.10 cells were then centrifuged, supernatant removed and cells resuspended in 100 μl of each antibody dilution and incubated at 4° C. for 45 min. Cells were washed twice by centrifugation with 150 μl FACS buffer, resuspended in 100 μl containing goat anti-human IgG (γ-chain specific) F (ab′) 2 fragment-R-Phycoerythrin antibody (Sigma, P8047) diluted 1:1000 in FACS buffer and incubated at 4° C. for 45 min. The cells were washed once with 150 μl FACS buffer and then with 150 μl DPBS, resuspended in 150 μl DPBS containing DAPI (Biotium, 40043) at 1:10.000 and read on the BDCantoll or iQue (Intellicyt). Data was analysed using FlowJo v10 to determine the signal geometric mean for PE for live cells in each well.
A general note: In flow cytometry, cells or beads pass a laser one at a time.

Assay [2] addresses T1, human CD137, full length, on cells. Briefly: flow cytometry on CD137high DO11.10 cells (ABC 1,206,283), anti-human IgG-PE detection, geometric mean PE. The procedure:
as §1, §2

For assay [3] the target is unchanged. Briefly: flow cytometry on CD137int/low DO11.10 cells (ABC 143,065), anti-human IgG-PE detection, geometric mean PE. As for the experimental part:
as §1, §2

Assay [4] has the same target. Briefly: cell-based or functional assay.
Assay [5] has the same target. The assay can be described thus: cell-based or functional assay. This is another data set of the same source.
Assay [6] shares this target. Briefly: cell-based or functional assay. The source holds these as a separate data set.
Assay [7] shares this target. The assay can be described thus: flow cytometry on CD137low DO11.10 cells (ABC 14,208), anti-human IgG-PE detection, geometric mean PE. As for the experimental part:
as §1, §2

T1 sequence (Q07011 24-255): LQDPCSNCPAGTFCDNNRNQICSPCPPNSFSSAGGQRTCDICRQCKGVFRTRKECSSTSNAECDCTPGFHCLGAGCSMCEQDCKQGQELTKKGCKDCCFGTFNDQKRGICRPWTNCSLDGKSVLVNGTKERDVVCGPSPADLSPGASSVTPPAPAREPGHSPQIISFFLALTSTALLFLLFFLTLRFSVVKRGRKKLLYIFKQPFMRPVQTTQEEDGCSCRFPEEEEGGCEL

B1: FS22-172-003-AA/HelD1.3 (bispecific antibody, human IgG1, kappa, L234A L235A)
heavy: QVQLQESGPGLVRPSQTLSLTCTVSGSTFSGYGVNWVRQPPGRGLEWIGMIWGDGNTDYNSALKSRVTMLVDTSKNQFSLRLSSVTAADTAVYYCARERDYRLDYWGQGSLVTVSSASTKGPSVFPLAPSSKSTSGGTAALGCLVKDYFPEPVTVSWNSGALTSGVHTFPAVLQSSGLYSLSSVVTVPSSSLGTQTYICNVNHKPSNTKVDKKVEPKSCDKTHTCPPCPAPEAAGGPSVFLFPPKPKDTLMISRTPEVTCVVVDVSHEDPEVKFNWYVDGVEVHNAKTKPREEQYNSTYRVVSVLTVLHQDWLNGKEYKCKVSNKALPAPIEKTISKAKGQPREPQVYTLPPSRDELPYIIPPYNQVSLTCLVKGFYPSDIAVEWESNGQPENNYKTTPPVLDSDGSFFLYSKLTVGADRWLEGNVFSCSVMHEALHNHYTQKSLSLSPG
light: DIQMTQSPASLSASVGETVTITCRASGNIHNYLAWYQQKQGKSPQLLVYNAKTLADGVPSRFSGSGSGTQYSLKINSLQPEDFGSYYCQHFWSTPRTFGGGTKLEIKRTVAAPSVFIFPPSDEQLKSGTASVVCLLNNFYPREAKVQWKVDNALQSGNSQESVTEQDSKDSTYSLSSTLTLSKADYEKHKVYACEVTHQGLSSPVTKSFNRGEC
notes: Mock mAb^2, IgG1 with LALA
Take B1: the “EC50 (read off the curve)” value in assay [1] is approximately 0.5 nM; in assay [2] it was approximately 0.5 nM; in assay [3], approximately 0.8 nM.

B2: G1-AA/20H4.9 (antibody, V domains shown)
VH: QVQLQQWGAGLLKPSETLSLTCAVYGGSFSGYYWSWIRQSPEKGLEWIGEINHGGYVTYNPSLESRVTISVDTSKNQFSLKLSSVTAADTAVYYCARDYGPGNYDWYFDLWGRGTLVTVSS
VL: EIVLTQSPATLSLSPGERATLSCRASQSVSSYLAWYQQKPGQAPRLLIYDASNRATGIPARFSGSGSGTDFTLTISSLEPEDFAVYYCQQRSNWPPALTFGGGTKVEIKR
Take B2: the “IL-2 release, DO11.10.hCD137 T cell activation assay: EC50” value in assay [4] came to 0.26 nM. Moreover, in assay [5], the “hIL-2 release, primary human CD8+ T cells, 20H4.9 (row without XL): EC50” value is 0.89 nM. For the same molecule, the “hIL-2 release, primary human CD8+ T cells, 20H4.9 + XL (anti-hCH2): EC50” value in assay [5] is 0.5 nM. The “IL-2 release, human CD137 DO11.10 T cell activation assay, Protein L: +XL EC50” value in assay [6] was 0.82 nM. Further, the “EC50 (read off the curve)” value in assay [7], in assay [1] and in assay [3] was approximately 0.1 nM throughout.

Broadly, the EC50 (read off the curve) is the concentration at which the effect is half-maximal. A low value points to greater potency.
